Results reported in article PMC6090299, “Quantitative Analysis of Interaction Between CADM1 and Its Binding Cell-Surface Proteins Using Surface Plasmon Resonance Imaging” (Frontiers in Cell and Developmental Biology, 2018).

Molecular target: T1, CADM1-Fc (human (by the printed RefSeq entry), UniProt Q9BY67-1 45-374)
T1 construct: signal peptide in the construct; CADM1 extracellular domain, NP_055148, 1-374 a.a; Human IgG2-Fc fragment from pFUSE-hIgG2-Fc1; Glycosylated; also called cell adhesion molecule 1 extracellular domain fused with Fc; source: FreeStyle 293-F cells, transiently transfected, purified from the supernatant (Protein G Sepharose); not shown: Fc (human IgG2), C-terminal, kept
T1 sequence (looked up): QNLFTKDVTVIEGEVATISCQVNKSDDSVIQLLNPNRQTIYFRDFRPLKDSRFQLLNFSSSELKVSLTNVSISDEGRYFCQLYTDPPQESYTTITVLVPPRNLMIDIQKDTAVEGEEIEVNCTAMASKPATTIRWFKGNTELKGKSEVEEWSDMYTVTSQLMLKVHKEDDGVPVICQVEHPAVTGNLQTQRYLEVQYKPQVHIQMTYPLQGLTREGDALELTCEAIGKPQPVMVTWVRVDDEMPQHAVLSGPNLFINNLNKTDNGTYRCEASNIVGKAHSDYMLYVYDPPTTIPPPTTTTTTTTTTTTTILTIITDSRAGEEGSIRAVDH
Experiment: SPR; SPR imaging (OpenPlex); the 10 IgSF-Fc proteins (7-24 μM) spotted in hexaplicate and immobilised by amine coupling; 2.4 μM CADM1-Fc injected for 4 min; 25°C; PBS with 0.2% BSA and 0.02% Tween20, 50 μL/min; signal of normal human IgG subtracted
Settings: both partners purified

B1: CRTAM-Fc (Fc fusion, human (by the printed RefSeq entry), UniProt O95727-1 18-287, looked up)
chain: SLTNHTETITVEEGQTLTLKCVTSLRKNSSLQWLTPSGFTIFLNEYPALKNSKYQLLHHSANQLSITVPNVTLQDEGVYKCLHYSDSVSTKEVKVIVLATPFKPILEASVIRKQNGEEHVVLMCSTMRSKPPPQITWLLGNSMEVSGGTLHEFETDGKKCNTTSTLIIHTYGKNSTVDCIIRHRGLQGRKLVAPFRFEDLVTDEETASDALERNSLSSQDPQQPTSTVSVTEDSSTSEIDKEEKEQTTQDPDLTTEANPQYLGLARKKSG
notes: signal peptide in the construct; CRTAM extracellular domain, NP_062550, 1-287 a.a; Human IgG2-Fc fragment from pFUSE-hIgG2-Fc1; also called class-I MHC-restricted T-cell-associated molecule; source: FreeStyle 293-F cells, transiently transfected, purified from the supernatant (Protein G Sepharose); not shown: Fc (human IgG2), C-terminal, kept
- Kd: 3.3 nM
- koff: 0.00011 s⁻¹
- kon: 31000 M⁻¹ s⁻¹
